Experiments:
human LAIR-1 [1] = target: T1, human LAIR-1 (Homo sapiens, UniProt Q6GTX8, D63E/L98P/R92S/S123T); experiment: Cell binding to human LAIR-1 cells by flow cytometry; conditions: UT-140 cells
T1 construct: expressed in transfected cells
T1 sequence (Q6GTX8 22-287 D63E/R92S/L98P/S123T): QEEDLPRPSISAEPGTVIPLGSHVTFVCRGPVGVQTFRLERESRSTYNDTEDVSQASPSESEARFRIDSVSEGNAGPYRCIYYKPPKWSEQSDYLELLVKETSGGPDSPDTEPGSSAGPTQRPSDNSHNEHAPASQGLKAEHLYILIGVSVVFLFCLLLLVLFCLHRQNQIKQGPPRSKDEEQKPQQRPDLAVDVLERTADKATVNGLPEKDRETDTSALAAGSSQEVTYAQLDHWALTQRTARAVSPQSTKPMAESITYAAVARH
Description: FIGS. 21A-21B display LAIR-1 binding properties including h11B3 LAIR-1 mAbs binding to cells expressing human LAIR-1 or cynomolgus LAIR-1 as measured by flow cytometry. The h11B3 LAIR-1 mAbs include a variable light chain of SEQ ID NO: 16 and a variable heavy chain of SEQ ID NO: 21, as shown for Anti-LAIR-1 Variant 6 in Table 1 herein. […] Cells were incubated for 30 min on ice with titrated concentrations of h11B3. AF647 conjugated secondary antibody was used at 1:2000 dilution. […] Cells were incubated for 30 min on ice with titrated concentrations of h11B3. AF647 conjugated secondary antibody was used at 1:2000 dilution.
For cell binding assays, 5e4 UT-140 cells or mouse LAIR-1-transfected 293T cells per well were plated in 200 μL PBS in a 96-well round bottom plate, centrifuged for 4 minutes at 500×g for a single wash, and blocked for 10 minutes on ice with flow cytometry buffer (PBS+2% FBS+0.1 mM EDTA) containing 1:50 dilution of TruStain™ Fc block (Biolegend, San Diego, CA). Cells were subsequently stained for 30 min on ice with titrated concentrations of soluble AF647-labeled LAIR-1 mAb or AF647-labeled isotype control. Cells were then washed 3 times as previously described and binding was measured by flow cytometry using an Attune NXT flow cytometer. […] GFP expression was measured by flow cytometry using an Attune NXT Flow Cytometer.

SoC-resistant AML cells = experiment: Ex vivo killing of VEN/AZA-treated AML patient leukemic cells; assay type: cell-based, human; conditions: 5 μg/mL of antibody; fresh BM leukemic cells from a patient treated with VEN/AZA
Description: Ex vivo killing of VEN/AZA-treated AML patient leukemic cells (FIG. 7A) or T cells or NK cells (FIG. 7B). Values normalized to vehicle control. Lines represent linear regression of NC525 concentration versus normalized cell killing. […] FIGS. 7D and 7E show in vivo leukemic growth as measured by whole-body luminescence of MV4-11-luciferase cells (FIG. 7D) or survival (FIG. 7E) of CDX mice treated with 10 mg/kg isotype control (gray) or NC525 (red) or 100 mg/kg VEN (pink) or 0.5 mg/kg AZA (blue) or combination therapy (green or yellow, respectively). BLoD, below limit of detection. n=9 mice per group. P values determined by 2-way ANOVA or log-rank (Mantel-Cox) test, respectively. FIGS. 7F and 7G show leukemic growth in the blood (FIG. 7F) and in the spleen and BM (FIG. 7G) at week 8 after transplant of AML PDX mice treated with vehicle (gray), VEN/AZA (blue), NC525 (red), or VEN/AZA plus NC525 (green). n=5-10 mice per group. AML cells in spleen and BM compared from 4-5 mice per group. Data are shown as the mean±SEM. P values determined by 2-way ANOVA or 1-way ANOVA with multiple comparisons.

human LAIR-1 [2] = experiment: UT-140 LAIR-1 reporter cell activation (agonism); assay type: cell-based; conditions: upon engagement and crosslinking
Description: For cell binding assays, 5e4 UT-140 cells or mouse LAIR-1-transfected 293T cells per well were plated in 200 μL PBS in a 96-well round bottom plate, centrifuged for 4 minutes at 500×g for a single wash, and blocked for 10 minutes on ice with flow cytometry buffer (PBS+2% FBS+0.1 mM EDTA) containing 1:50 dilution of TruStain™ Fc block (Biolegend, San Diego, CA). Cells were subsequently stained for 30 min on ice with titrated concentrations of soluble AF647-labeled LAIR-1 mAb or AF647-labeled isotype control. Cells were then washed 3 times as previously described and binding was measured by flow cytometry using an Attune NXT flow cytometer. For reporter cell assays, flat-bottom 96-well TC plates were coated with 10 μg/mL per well of the indicated antibody in PBS or 2 μg/mL of ligand in 0.01N HCl overnight at 4° C. Wells were washed once with 200 μL sterile PBS. 5e4-to-1e5 cells per well were plated in 100 μL RPMIc containing titrated concentrations of LAIR-1 mAb or isotype control, then incubated overnight at 37° C. The next day, cells were transferred to a 96-well round-bottom plate, centrifuged for 4 minutes at 500×g, and resuspended in 200 μL of flow cytometry buffer. Cells were then centrifuged and resuspended for a total of 3 washes. GFP expression was measured by flow cytometry using an Attune NXT Flow Cytometer.

MV4-11 cells = experiment: Digital spatial imaging of bone and spleen of MV4-11 CDX mice; assay type: in vivo, NSG mice
Text: FIGS. 6A-6D display LAIR-1 signaling restricts AML survival signaling pathways in vivo. […] N=3 mice per group. […] N=6 mice per group. FIG. 6C is representative images of CDX mouse bones stained with DAPI and anti-human CD45 used to quantify the number of MV4-11 cells in the indicated region of interest (ROI) (highlighted). ROI area is equal between samples. […] Read counts are normalized to Histone H3 and ribosomal protein S6. N=3-11 quantified tissue regions across 2 isotype-treated or 2 LAIR-1 mAb-treated mice. Error bars represent standard error of mean. P values determined by Student's T test.
Protocols and reagents from NanoString were used for GeoMx digital spatial imaging (DSP). Briefly, formalin-fixed paraffin-embedded (FFPE) sections of tumor and spleen were deparaffinized and rehydrated, antigen-retrieved in citrate buffer, blocked, and stained with the Human Immune Profiling Core and Cell Death Panel overnight at 37 degrees C. Anti-HCD45-Alexaflour 647 antibody (NBP2-34528AF647 from Novus Biologicals, Centennial, CO) was used as a morphology marker at 5 μg/mL to identify MV4-11 cells. After washing, slides were fixed in 4% paraformaldehyde and nuclei were stained with Syto13. Slides were scanned and regions of interest (human CD45 regions) were acquired on a GeoMx DSP instrument (Nanostring, Seattle, WA). Approximately 5 regions of interest (ROIs) were collected per tissue, and samples were multi-plexed and processed on the nCounter Prep Station and Digital Analyzer as recommended. Data were analyzed on DSP Analysis software. Following quality control, data were normalized to housekeeping genes, and statistics were performed using a linear mixed model with a Benjamin-Hochberg correction.

B1: LAIR-1 mAb: humanized agonist anti-LAIR-1 mAb, IgG1 backbone; h11B3 VL-2 (SEQ ID NO: 16), h11B3 VH-3 (SEQ ID NO: 27) (antibody, V domains shown)
VH: EVQLVESGGGLVQPGGSLKLSCAASGFTFNTNAMYWVRQAPGKGLEWVGRIRSKSSNYATYYAASVKGRFTISRDDSKNTLYLQMNSLKTEDTAVYYCVRGGSGFFAYWGQGTLVTVSS
VL: DIQMTQSPSSLSASLGDRVTITCKASEDIYIRLAWYQQKPGKAPRLLISTATSLETGVPSRFSGSGSGTDYTFTISSLQPEDIATYYCQQYWSTPYTFGGGTRLEIK
modifications: IgG1 constant regions; Synthetic: h11B3 VH-3; Synthetic: h11B3 VL-2
Human LAIR-1 [1]
  binding to human LAIR-1: specifically binds
SoC-resistant AML cells
  killing of SoC-resistant AML cells: up to 70%
Human LAIR-1 [2]
  human LAIR-1 signaling (agonist): capable of inducing human LAIR-1 signaling
MV4-11 cells; day 22 post-engraftment
  AML cells (human CD45+ cells) in the bones: reduction
MV4-11 cells; in bones but not the spleen
  anti-apoptotic BCL-XL: decreased levels
  anti-apoptotic uncleaved PARP: decreased levels

Source: patent US20240352121A1, “LAIR-1 AGONISTIC ANTIBODIES AND METHODS OF USE THEREOF” (NEXTCURE, INC., priority 2023, published 2024)
